The labels stand for the following.
B2: FliM (S. Typhimurium) (natural protein, UniProt P26418 1-334, looked up)
chain: MGDSILSQAEIDALLNGDSDTKDEPTPGIASDSDIRPYDPNTQRRVVRERLQALEIINERFARQFRMGLFNLLRRSPDITVGAIRIQPYHEFARNLPVPTNLNLIHLKPLRGTGLVVFSPSLVFIAVDNLFGGDGRFPTKVEGREFTHTEQRVINRMLKLALEGYSDAWKAINPLEVEYVRSEMQVKFTNITTSPNDIVVNTPFHVEIGNLTGEFNICLPFSMIEPLRELLVNPPLENSRHEDQNWRDNLVRQVQHSELELVANFADIPLRLSQILKLKPGDVLPIEKPDRIIAHVDGVPVLTSQYGTVNGQYALRVEHLINPILNSLNEEQPK
notes: FliM, flagellar motor switch protein of Salmonella enterica serovar Typhimurium; endogenous protein in basal bodies; The extreme N-terminus is disordered in both structures; also called FliMM; FliMC; source: endogenous, S. Typhimurium strains TH25455 (CCW locked) and TH25631 (CW locked), in purified basal bodies; copies: 34

For data set [1], the target named is C. sporogenes MotB with C-terminal Twin-Strep tag (Clostridium sporogenes). In words: cryo-EM structure; C. sporogenes MotA1–262-FliG239–333 fusion co-expressed with MotB-Twin-Strep in E. coli, purified in LMNG; 2.4 Å map.
Data set [2] deals with the molecule itself. Described as above.
Data set [3] concerns the molecule itself. In words: cryo-EM structure; intact flagellar basal bodies with C-rings from S. Typhimurium TH25455 (ΔcheY, CCW locked), assembled in cells and purified on a sucrose gradient in Triton X-100; C34 class, symmetry expansion and local refinement around 3 subunits, 3.6 Å global.
The target of data set [4] is T1, FliF (S. Typhimurium, MS-ring protein) (S. Typhimurium (endogenous in strains …, UniProt P15928 1-560)).
T1 construct: FliF, flagellar M-ring protein of Salmonella enterica serovar Typhimurium; endogenous protein in basal bodies; only its C-terminus (residues 523–560) is described in the C-ring models; also called FliFC; FliF C-terminus; source: endogenous, S. Typhimurium strains TH25455 (CCW locked) and TH25631 (CW locked), in purified basal bodies
T1 sequence (looked up): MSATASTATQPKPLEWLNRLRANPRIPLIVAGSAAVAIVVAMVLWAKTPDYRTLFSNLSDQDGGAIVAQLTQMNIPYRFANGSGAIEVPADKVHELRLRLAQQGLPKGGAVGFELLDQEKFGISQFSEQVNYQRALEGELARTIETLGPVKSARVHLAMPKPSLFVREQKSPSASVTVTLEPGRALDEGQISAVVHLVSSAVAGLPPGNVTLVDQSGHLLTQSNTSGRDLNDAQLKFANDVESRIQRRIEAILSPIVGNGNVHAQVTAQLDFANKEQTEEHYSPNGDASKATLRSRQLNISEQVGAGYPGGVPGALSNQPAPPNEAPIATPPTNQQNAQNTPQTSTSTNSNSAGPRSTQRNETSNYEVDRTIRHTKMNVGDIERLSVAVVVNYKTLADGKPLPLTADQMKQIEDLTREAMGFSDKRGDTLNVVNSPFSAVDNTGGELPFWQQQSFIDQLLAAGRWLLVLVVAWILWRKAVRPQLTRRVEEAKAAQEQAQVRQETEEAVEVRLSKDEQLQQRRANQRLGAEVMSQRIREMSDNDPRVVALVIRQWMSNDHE
Briefly: cryo-EM structure; intact flagellar basal bodies with C-rings from S. Typhimurium TH25631 (fliG-ΔPAA, CW locked), assembled in cells and purified on a sucrose gradient in Triton X-100; C34 class, symmetry expansion and local refinement around 3 subunits, 4.0 Å global. The conditions noted are these: both partners purified.

The target in data set [5] is B2. The description is as above. The following applies: both partners purified.
Data set [6] concerns the molecule itself. The description is as above.
The target of data set [7] is C. sporogenes MotA5MotB2 stator complex (Clostridium sporogenes). Briefly: cryo-EM structure; C. sporogenes MotA1–262-FliG239–333 fusion co-expressed with MotB-Twin-Strep in E. coli, purified in LMNG; 2.4 Å map.
Data set [8] deals with B2. In words: cryo-EM structure; intact flagellar basal bodies with C-rings from S. Typhimurium TH25455 (ΔcheY, CCW locked), assembled in cells and purified on a sucrose gradient in Triton X-100; C34 class, symmetry expansion and local refinement around 3 subunits, 3.6 Å global. The conditions noted are these: both partners purified.
In data set [9] the target is T1, FliF (S. Typhimurium, MS-ring protein). Described as above. The following applies: both partners purified.

From article PMC11302681, “Structural Basis of Directional Switching by the Bacterial Flagellum” (Research Square, 2023) come the findings set out here.

By stoichiometry N is commonly meant the number of molecules, sites or subunits per partner or assembly.

For “C. sporogenes MotB with C-terminal Twin-Strep tag (natural protein)”, the stoichiometry N in data set [1] was determined as 2.

B1: C. sporogenes MotA (residues 1–262, of the MotA1–262-FliG239–333 fusion) (domain or fragment, Clostridium sporogenes, UniProt A0A7U4JQH9 1-262, looked up)
chain: MKKRDILTPIGFVLCFGLVLWGMASGGSNLKVFWDVASVFITIGGSMAAMLITYPMDEFKRLLIVIRQTFKDNGMSNIDVIQNFVDLSRKARREGLLSLEDAINNLTDDYMKKGLRMVVDGIEPETIREIMELEIDEMEKRHKSGADMLKTWGGYAPAFGMVGTLIGLIQMLANLTDSSTIASGMGKALITTFYGSLMANAVFNPMGANLMFKSGVEATTREMVLEGVLAIQSGVNPRIMEEKLVSYLSPPERQAYSKVQVS
notes: MotA of Clostridium sporogenes 388 (DSM 795), residues 1–262; several linker lengths were tried) to FliG 239–333 on one chain; also called MotA component; source: E. coli MT56, pT12 vector, co-expressed with MotB, purified (LMNG, Strep-Tactin XT, Superose 6)
On to B1, for which, in data set [2], the “stoichiometry N” value was found to be 5.
With B2, the binding result in [3] is “binds”.

B3: FliG-ΔPAA (S. Typhimurium, CW-locking deletion of residues 169–171) (natural protein)
chain: MSNLSGTDKSVILLMTIGEDRAAEVFKHLSTREVQALSTAMANVRQISNKQLTDVLSEFEQEAEQFAALNINANEYLRSVLVKALGEERASSLLEDILETRDTTSGIETLNFMEPQSAADLIRDEHPQIIATILVHLKRSQAADILALFDERLRHDVMLRIATFGGVQLAELTEVLNGLLDGQNLKRSKMGGVRTAAEIINLMKTQQEEAVITAVREFDGELAQKIIDEMFLFENLVDVDDRSIQRLLQEVDSESLLIALKGAEPPLREKFLRNMSQRAADILRDDLANRGPVRLSQVENEQKAILLIVRRLAETGEMVIGSGEDTYV
notes: FliG of Salmonella enterica serovar Typhimurium with the CW-locking PAA deletion at residues 169–171; also called CW-locked mutant; source: endogenous locus mutant, S. Typhimurium strain TH25631 (CW locked), in purified basal bodies (sucrose gradient); copies: 34
B3: the binding result (in [4]; with FliM (S. Typhimurium) [5]) was “binds” in each case. Also, in [6], the “stoichiometry N” value is 34.

B4: C. sporogenes FliG C-terminal domain (residues 239–333, of the MotA1–262-FliG239–333 fusion) (domain or fragment)
chain: VFEDIITLDDVAIQRVLREVETKDLALALKGSSEEVANVIFRNQSKRAASSLKEDIEFLGPVRIMDVEKAQQGIVSIIRRLDEAGEIVISRGGED
The molecule B4 showed a stoichiometry N in data set [7] of less than 3.

B5: FliN (S. Typhimurium) (natural protein, UniProt P26419 1-137, looked up)
chain: MSDMNNPSDENTGALDDLWADALNEQKATTTKSAADAVFQQLGGGDVSGAMQDIDLIMDIPVKLTVELGRTRMTIKELLRLTQGSVVALDGLAGEPLDILINGYLIAQGEVVVVADKYGVRITDIITPSERMRRLSR
notes: FliN, flagellar motor switch protein of Salmonella enterica serovar Typhimurium; endogenous protein in basal bodies; Three copies of FliN in each C-ring subunit; also called FliN3; source: endogenous, S. Typhimurium strains TH25455 (CCW locked) and TH25631 (CW locked), in purified basal bodies
Take B5: the “stoichiometry N” value in the data set with FliM (S. Typhimurium) [8] amounted to 3. Also, the binding result in [6] is reported as “binds”.

B6: FliG (S. Typhimurium, wild type, in the CCW-locked C-ring) (natural protein, UniProt P0A1J9 1-331, looked up)
chain: MSNLSGTDKSVILLMTIGEDRAAEVFKHLSTREVQALSTAMANVRQISNKQLTDVLSEFEQEAEQFAALNINANEYLRSVLVKALGEERASSLLEDILETRDTTSGIETLNFMEPQSAADLIRDEHPQIIATILVHLKRSQAADILALFDERLRHDVMLRIATFGGVQPAALAELTEVLNGLLDGQNLKRSKMGGVRTAAEIINLMKTQQEEAVITAVREFDGELAQKIIDEMFLFENLVDVDDRSIQRLLQEVDSESLLIALKGAEPPLREKFLRNMSQRAADILRDDLANRGPVRLSQVENEQKAILLIVRRLAETGEMVIGSGEDTYV
notes: FliG, flagellar motor switch protein of Salmonella enterica serovar Typhimurium; endogenous protein in basal bodies; residues up to 331 are named; One FliG in each of the about 34 C-ring subunits (C34 is the dominant class); also called FliGN; FliGM; source: endogenous, S. Typhimurium strain TH25455 (CCW locked, ΔcheY), in purified basal bodies (sucrose gradient); copies: 34
As for B6, the binding result (in data set [9]; in the data set with FliM (S. Typhimurium) [8]) was “binds” throughout. Besides, in data set [3], the “stoichiometry N” value stood at 34.
